# Test results taken from patent US20220403001A1, “PDE5 DERIVED REGULATORY CONSTRUCTS AND METHODS OF USE IN IMMUNOTHERAPY” (Obsidian Therapeutics, Inc., priority 2018, published 2022).
# Biological target: hPDE5 mutants (Homo sapiens, UniProt O76074)
# Experiment: GFP FACS analysis of hPDE5 mutant library clones in NIH3T3 cell pools
# Details: experiment 1; for Stabilization ratio: GFP intensity 10 μM vardenafil vs DMSO; for Destabilizing mutation co-efficient: GFP intensity mutant vs PDE5 wildtype construct in absence of ligand; for MFI 10 μM VDF / MFI DMSO: GFP, NIH3T3 cell pools; for MFI 10 μM VDF: 10 μM vardenafil 24 hr; for MFI DMSO: no ligand (DMSO)
# Procedure: These constructs were packaged into lentivirus, transduced into NIH3T3 cells and select stable cell pools were derived as described below. […] Lentiviral stocks were used for transduction of NIH3T3 cells and subsequent cell pool selection. The day before transduction, NIH3T3 cells (1.8×10^6) were seeded in a T-25 flask and allowed to reach 60-70% confluency (˜1 day). The growth medium in the T-25 flask was then replaced with 1 mL virus (quickly thawed in a 37° C. water bath) and 5 μg/mL polybrene. […] Transduction medium was removed the following day and replaced with 5 mL fresh medium. At 48 hr after transduction, the medium was replaced with media containing 1 μg/mL puromycin. This puromycin medium was replaced every 3-4 days until cell pools were established (˜2 weeks).
# The mean fluorescence intensity (MFI) of GFP at 100 μM concentration treatment was set as 100% hPDE5 stabilization effect (HPE), while DMSO treatment was set as 0% effect (ZPE) of hPDE5 stabilization. The effect of the compound on hPDE5 stabilization was calculated based on the following formula: % PDE5 stabilization effect=(MFI-ZPE)/(HPE-ZPE)×100.
# Plots of the % effect versus concentration were generated with Graphpad Prism 5 and EC50 values were calculated using a four-parameter nonlinear regression model.
# Select PDE5 clones from both experiment 1 and experiment 2 were directly compared. […] The stabilization ratio was calculated as the fold change in GFP intensity in ligand treated samples compared to treatment with DMSO (i.e. in the absence of ligand) with the same construct.
Substance,Stabilization ratio,Destabilizing mutation co-efficient,MFI 10 μM VDF,MFI DMSO
"LibC000019: hPDE5 (Amino acid 535-860 of WT, F564I, N662Y, H685L, L693P, F736I), DD generated by random mutagenesis",0.9,0.06,285,320
"LibC000014: hPDE5 (Amino acid 535-860 of WT, A767E), DD generated by random mutagenesis",2.8,0.44,6998,2500
"LibC000017: hPDE5 (Amino acid 535-860 of WT, Y709H, F787V), DD generated by random mutagenesis",2.9,0.39,6530,2244
"LibC000018: hPDE5 (Amino acid 535-860 of WT, N605Y, I715K), DD generated by random mutagenesis",3.0,0.18,3102,1038
"LibC000007: hPDE5 (Amino acid 535-860 of WT, H613L, D724Y, F755Y), DD generated by random mutagenesis",1.0,0.04,234,234
"LibC000003: hPDE5 (Amino acid 535-860 of WT, D724G, K848N), DD generated by random mutagenesis",2.9,0.11,1870,656
"LibC000024: hPDE5 (Amino acid 535-860 of WT, T784I), DD generated by random mutagenesis",1.4,0.88,6905,5039
"LibC000002: hPDE5 (Amino acid 535-860 of WT, I700F, E796G), DD generated by random mutagenesis",3.2,0.05,981,309
"LibC000016: hPDE5 (Amino acid 535-860 of WT, Q743L), DD generated by random mutagenesis",2.4,0.51,6869,2895
